In US20220025010A1 (ANTAG THERAPEUTICS, published 2022):
*1 amine or outer side, *2 acyl side, *3 side chain or, on linkers, in order; H or OH if unused. Where no end group is shown, it is not given here. Side-chain parts run from the residue outwards. The star is where a group is joined. C18 diacid = O=C(O)CCCCCCCCCCCCCCCCC(=O)*; C16 diacid = O=C(O)CCCCCCCCCCCCCCC(=O)*; γGlu = O=C(O)[C@H](CCC(=O)[*:2])N[*:1]; AEEA = NCCOCCOCC(=O)O

T1: human GIP receptor (human, UniProt P48546 22-466)
T1 sequence (looked up): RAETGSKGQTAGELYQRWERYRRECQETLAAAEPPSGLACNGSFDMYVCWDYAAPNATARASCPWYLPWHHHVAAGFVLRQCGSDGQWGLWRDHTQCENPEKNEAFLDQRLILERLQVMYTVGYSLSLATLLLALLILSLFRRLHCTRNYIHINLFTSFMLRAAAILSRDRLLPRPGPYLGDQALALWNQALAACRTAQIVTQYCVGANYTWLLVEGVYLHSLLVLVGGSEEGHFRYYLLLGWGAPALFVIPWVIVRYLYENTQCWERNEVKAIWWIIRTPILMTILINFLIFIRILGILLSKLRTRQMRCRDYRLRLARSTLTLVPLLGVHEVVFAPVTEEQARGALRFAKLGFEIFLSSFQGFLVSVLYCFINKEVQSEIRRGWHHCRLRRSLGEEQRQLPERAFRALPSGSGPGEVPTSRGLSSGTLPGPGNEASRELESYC


target: T1, human GIP receptor; experiment: cell-based or functional assay

Binder	CisBio cAMP agonism % Efficacy [%]	CisBio cAMP antagonism % inhib [%]	CisBio cAMP antagonism IC50 [nM]	CisBio cAMP antagonism pIC50	DiscoveRx cAMP agonism Emax	DiscoveRx cAMP antagonism IC50 [nM]	DiscoveRx cAMP antagonism log IC50 [log M]	DiscoveRx cAMP antagonism % inhib [%]
SGTFISDYSIAMDRIK(C16 diacid)QQDFVNWLLAQR-OH (N-terminus assumed; SMILES CC[C@H](C)[C@H](NC(=O)[C@H](CO)NC(=O)[C@H](Cc1ccc(O)cc1)NC(=O)[C@H](CC(=O)O)NC(=O)[C@H](CO)NC(=O)[C@@H](NC(=O)[C@H](Cc1ccccc1)NC(=O)[C@@H](NC(=O)CNC(=O)[C@@H](N)CO)[C@@H](C)O)[C@@H](C)CC)C(=O)N[C@@H](C)C(=O)N[C@@H](CCSC)C(=O)N[C@@H](CC(=O)O)C(=O)N[C@@H](CCCNC(=N)N)C(=O)N[C@H](C(=O)N[C@@H](CCCCNC(=O)CCCCCCCCCCCCCCC(=O)O)C(=O)N[C@@H](CCC(N)=O)C(=O)N[C@@H](CCC(N)=O)C(=O)N[C@@H](CC(=O)O)C(=O)N[C@@H](Cc1ccccc1)C(=O)N[C@H](C(=O)N[C@@H](CC(N)=O)C(=O)N[C@@H](Cc1c[nH]c2ccccc12)C(=O)N[C@@H](CC(C)C)C(=O)N[C@@H](CC(C)C)C(=O)N[C@@H](C)C(=O)N[C@@H](CCC(N)=O)C(=O)N[C@@H](CCCNC(=N)N)C(=O)O)C(C)C)[C@@H](C)CC) [AT259]	9	72	58.4	7.2	20	19	-7.7	–
SGTFISDYSIAMDRIKQQDFVNWLLAQR (HELM PEPTIDE1{S.G.T.F.I.S.D.Y.S.I.A.M.D.R.I.K.Q.Q.D.F.V.N.W.L.L.A.Q.R}|PEPTIDE2{[O=C(O)CCCCCCCCCCCCCCC(=O)[*:2]].[gGlu]}$PEPTIDE1,PEPTIDE2,16:R3-2:R2$$$V2.0; N-terminus assumed; SMILES CC[C@H](C)[C@H](NC(=O)[C@H](CO)NC(=O)[C@H](Cc1ccc(O)cc1)NC(=O)[C@H](CC(=O)O)NC(=O)[C@H](CO)NC(=O)[C@@H](NC(=O)[C@H](Cc1ccccc1)NC(=O)[C@@H](NC(=O)CNC(=O)[C@@H](N)CO)[C@@H](C)O)[C@@H](C)CC)C(=O)N[C@@H](C)C(=O)N[C@@H](CCSC)C(=O)N[C@@H](CC(=O)O)C(=O)N[C@@H](CCCNC(=N)N)C(=O)N[C@H](C(=O)N[C@@H](CCCCNC(=O)CC[C@H](NC(=O)CCCCCCCCCCCCCCC(=O)O)C(=O)O)C(=O)N[C@@H](CCC(N)=O)C(=O)N[C@@H](CCC(N)=O)C(=O)N[C@@H](CC(=O)O)C(=O)N[C@@H](Cc1ccccc1)C(=O)N[C@H](C(=O)N[C@@H](CC(N)=O)C(=O)N[C@@H](Cc1c[nH]c2ccccc12)C(=O)N[C@@H](CC(C)C)C(=O)N[C@@H](CC(C)C)C(=O)N[C@@H](C)C(=O)N[C@@H](CCC(N)=O)C(=O)N[C@@H](CCCNC(=N)N)C(=O)O)C(C)C)[C@@H](C)CC) [AT265]	8	73	58.4	7.2	10	33	-7.5	–
EGTFISDYSIAMDRIK([AEEA-AEEA-γGlu-C16 diacid])QQDFVNWLLAQR-NH2 (not fully specified (residue 1)) [AT374]	0	86	17.1	7.8	–	12	-7.9	100
TFISDYSIALDRIKQQDFVNWLLAQR (HELM PEPTIDE1{T.F.I.S.D.Y.S.I.A.L.D.R.I.K.Q.Q.D.F.V.N.W.L.L.A.Q.R.[am]}|PEPTIDE2{[O=C(O)CCCCCCCCCCCCCCC(=O)[*:2]].[gGlu]}$PEPTIDE1,PEPTIDE2,14:R3-2:R2$$$V2.0; N-terminus assumed; SMILES CC[C@H](C)[C@H](NC(=O)[C@H](CO)NC(=O)[C@H](Cc1ccc(O)cc1)NC(=O)[C@H](CC(=O)O)NC(=O)[C@H](CO)NC(=O)[C@@H](NC(=O)[C@H](Cc1ccccc1)NC(=O)[C@@H](N)[C@@H](C)O)[C@@H](C)CC)C(=O)N[C@@H](C)C(=O)N[C@@H](CC(C)C)C(=O)N[C@@H](CC(=O)O)C(=O)N[C@@H](CCCNC(=N)N)C(=O)N[C@H](C(=O)N[C@@H](CCCCNC(=O)CC[C@H](NC(=O)CCCCCCCCCCCCCCC(=O)O)C(=O)O)C(=O)N[C@@H](CCC(N)=O)C(=O)N[C@@H](CCC(N)=O)C(=O)N[C@@H](CC(=O)O)C(=O)N[C@@H](Cc1ccccc1)C(=O)N[C@H](C(=O)N[C@@H](CC(N)=O)C(=O)N[C@@H](Cc1c[nH]c2ccccc12)C(=O)N[C@@H](CC(C)C)C(=O)N[C@@H](CC(C)C)C(=O)N[C@@H](C)C(=O)N[C@@H](CCC(N)=O)C(=O)N[C@@H](CCCNC(=N)N)C(N)=O)C(C)C)[C@@H](C)CC) [AT233]	0	70	34.2	7.5	28	32	-7.5	–
TFISDYSIALDRIKQQDFVNWLLAQR-NH2 (not fully specified (residue 14); printed as TFISDYSIALDRIKQQDFVNWLLAQR-(AEEAc +γ-Glu)-C16-diacid/K18) [AT234]	0	66	39.8	7.4	26	16	-7.8	–
EGTFISDYSIAMDRIK([AEEA-AEEA-AEEA-γGlu-C18 diacid])QQDFVNWLLAQR-NH2 (not fully specified (residue 1)) [AT378]	0	90	11.7	7.9	–	16	-7.8	92
EGTFISDYSIAMDRIK([AEEA-AEEA-AEEA-γGlu-C16 diacid])QQDFVNWLLAQR-NH2 (not fully specified (residue 1)) [AT375]	6	83	23.3	7.6	–	22	-7.7	100
EGTFISDYSIAMDRIK([AEEA-γGlu-C18 diacid])QQDFVNWLLAQR-NH2 (not fully specified (residue 1)) [AT376]	0	87	6.81	8.2	–	19	-7.7	90
EGTFISDYSIAMDRIK([AEEA-γGlu-C16 diacid])QQDFVNWLLAQR-NH2 (not fully specified (residue 1)) [AT373]	0	91	12.6	7.9	–	10	-8	94
EGTFISDYSIAMDRIK([AEEA-AEEA-γGlu-C18 diacid])QQDFVNWLLAQR-NH2 (not fully specified (residue 1)) [AT377]	0	90	18.5	7.7	–	19	-7.7	100
PGTFISDYSIAMDRIKQQDFVNWLLAQR (HELM PEPTIDE1{P.G.T.F.I.S.D.Y.S.I.A.M.D.R.I.K.Q.Q.D.F.V.N.W.L.L.A.Q.R}|PEPTIDE2{[O=C(O)CCCCCCCCCCCCCCC(=O)[*:2]].[gGlu]}$PEPTIDE1,PEPTIDE2,16:R3-2:R2$$$V2.0; N-terminus assumed; SMILES CC[C@H](C)[C@H](NC(=O)[C@H](CO)NC(=O)[C@H](Cc1ccc(O)cc1)NC(=O)[C@H](CC(=O)O)NC(=O)[C@H](CO)NC(=O)[C@@H](NC(=O)[C@H](Cc1ccccc1)NC(=O)[C@@H](NC(=O)CNC(=O)[C@@H]1CCCN1)[C@@H](C)O)[C@@H](C)CC)C(=O)N[C@@H](C)C(=O)N[C@@H](CCSC)C(=O)N[C@@H](CC(=O)O)C(=O)N[C@@H](CCCNC(=N)N)C(=O)N[C@H](C(=O)N[C@@H](CCCCNC(=O)CC[C@H](NC(=O)CCCCCCCCCCCCCCC(=O)O)C(=O)O)C(=O)N[C@@H](CCC(N)=O)C(=O)N[C@@H](CCC(N)=O)C(=O)N[C@@H](CC(=O)O)C(=O)N[C@@H](Cc1ccccc1)C(=O)N[C@H](C(=O)N[C@@H](CC(N)=O)C(=O)N[C@@H](Cc1c[nH]c2ccccc12)C(=O)N[C@@H](CC(C)C)C(=O)N[C@@H](CC(C)C)C(=O)N[C@@H](C)C(=O)N[C@@H](CCC(N)=O)C(=O)N[C@@H](CCCNC(=N)N)C(=O)O)C(C)C)[C@@H](C)CC) [AT267]	4	52	736	6.1	16	123	-6.9	–
